The results in this text go back to paper PMC4931921.

For data set [1], the target named is T1, IFIT5 (Homo sapiens, UniProt Q13325 1-482).
T1 sequence: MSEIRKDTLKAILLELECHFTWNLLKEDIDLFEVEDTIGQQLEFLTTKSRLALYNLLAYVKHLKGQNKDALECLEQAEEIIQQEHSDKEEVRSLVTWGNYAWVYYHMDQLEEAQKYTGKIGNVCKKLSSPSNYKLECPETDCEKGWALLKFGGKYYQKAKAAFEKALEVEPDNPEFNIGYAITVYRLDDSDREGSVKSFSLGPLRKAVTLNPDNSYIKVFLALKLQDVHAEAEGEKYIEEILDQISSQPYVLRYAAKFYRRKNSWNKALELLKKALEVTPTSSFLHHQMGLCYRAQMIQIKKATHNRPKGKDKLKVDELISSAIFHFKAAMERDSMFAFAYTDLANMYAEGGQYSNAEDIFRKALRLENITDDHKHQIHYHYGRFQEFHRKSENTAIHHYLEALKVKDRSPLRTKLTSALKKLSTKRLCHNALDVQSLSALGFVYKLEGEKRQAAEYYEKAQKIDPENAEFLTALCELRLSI
The data set is described as follows: crystal structure 2.0 A.

For data set [2], the target named is T1, IFIT5. Nature of the data set: EMSA.
In another data set the target is T2, IFIT3 (Homo sapiens, UniProt O14879 1-490).
T2 sequence: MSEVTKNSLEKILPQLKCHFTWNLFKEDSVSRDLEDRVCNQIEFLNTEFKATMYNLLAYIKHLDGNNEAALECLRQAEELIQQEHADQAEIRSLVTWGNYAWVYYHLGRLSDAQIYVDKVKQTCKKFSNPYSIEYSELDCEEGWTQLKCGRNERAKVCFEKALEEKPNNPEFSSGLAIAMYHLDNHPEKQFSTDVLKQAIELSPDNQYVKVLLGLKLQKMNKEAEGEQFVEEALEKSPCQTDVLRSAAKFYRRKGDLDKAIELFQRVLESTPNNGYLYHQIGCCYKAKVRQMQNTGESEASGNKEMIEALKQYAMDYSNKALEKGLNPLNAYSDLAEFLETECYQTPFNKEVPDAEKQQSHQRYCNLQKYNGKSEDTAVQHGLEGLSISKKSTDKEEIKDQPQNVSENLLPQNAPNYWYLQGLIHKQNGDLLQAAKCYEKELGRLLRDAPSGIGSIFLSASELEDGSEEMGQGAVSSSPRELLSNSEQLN
Nature of the data set: EMSA.

In another data set the target is T3, IFIT1 (Homo sapiens, UniProt P09914 1-478).
T3 sequence: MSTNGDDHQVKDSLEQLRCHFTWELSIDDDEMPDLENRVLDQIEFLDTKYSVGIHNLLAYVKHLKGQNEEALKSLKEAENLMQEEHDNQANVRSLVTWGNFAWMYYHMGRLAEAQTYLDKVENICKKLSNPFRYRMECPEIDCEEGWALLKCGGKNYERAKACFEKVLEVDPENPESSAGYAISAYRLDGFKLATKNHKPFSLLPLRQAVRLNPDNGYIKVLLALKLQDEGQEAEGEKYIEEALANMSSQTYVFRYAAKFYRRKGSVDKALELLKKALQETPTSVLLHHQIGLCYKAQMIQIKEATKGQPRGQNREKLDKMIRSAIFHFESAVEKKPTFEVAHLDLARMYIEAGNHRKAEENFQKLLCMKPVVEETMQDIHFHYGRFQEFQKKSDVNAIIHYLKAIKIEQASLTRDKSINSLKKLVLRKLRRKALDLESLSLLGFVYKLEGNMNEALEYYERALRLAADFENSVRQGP
Nature of the data set: EMSA.

Data set [3] deals with T1, IFIT5. Nature of the data set: crystal structure 2.5 A.
Data set [4] addresses T1, IFIT5. Nature of the data set: crystal structure 1.86 A.

In the case of UUU (ssRNA, 5'-triphosphate) [PPP-oligo-U], in the data set with IFIT5 [1], the binding result is listed as “binds”.

B1: PPP-3nt (dsRNA)
RNA 1: GGGAGAGAGAGAGAGAGAGUAAGGGCGUCGUCGCCCCGAGAAUU
RNA 2: ACUCUCUCUCUCUCUCU
modifications: 5'-triphosphate on strand 1
On to B1, for which the values for the binding result with IFIT5 [2] and with IFIT3 were “binds” and “no binding”, respectively.

B2: PPP-5nt (dsRNA)
RNA 1: GGGAGAGAGAGAGAGAGAGUAAGGGCGUCGUCGCCCCGAGAAUU
RNA 2: ACUCUCUCUCUCUCU
modifications: 5'-triphosphate on strand 1
On to B2, for which, in the data set with IFIT1, the binding result is reported as “binds”. On to GGGAGAGAGAGAGAGAGAGUAAGGGCGUCGUCGCCCCGAGAAUU (ssRNA, 5'-triphosphate) [PPP-ss (44nt PPP-ssRNA)], for which the binding result with IFIT5 [2] is listed as “binds”; in the data set with IFIT3, “no binding”; in the data set with IFIT1, “binds”. As to AAAA (ssRNA, 5'-triphosphate) [PPP-oligo-A], the binding result with IFIT5 [3] is “binds”. For CCCC (ssRNA, 5'-triphosphate) [PPP-oligo-C], in the data set with IFIT5 [4], the binding result was “binds”.
